Results from patent US20170002346A1.

Molecular target: V5 epitope tagged Sag1p fragment fusion displayed on the cell surface of Pichia pastoris (vectors without insert, s1-V5-SAG1 constructs) (S. cerevisiae) (UniProt P20840)
Experiment: flow cytometry, FITC anti-V5 staining of plate-grown SuperMan5 cells with GAP and UP promoter constructs (5 isolates each)

Sequence of UniProt P20840 (P20840 331-650): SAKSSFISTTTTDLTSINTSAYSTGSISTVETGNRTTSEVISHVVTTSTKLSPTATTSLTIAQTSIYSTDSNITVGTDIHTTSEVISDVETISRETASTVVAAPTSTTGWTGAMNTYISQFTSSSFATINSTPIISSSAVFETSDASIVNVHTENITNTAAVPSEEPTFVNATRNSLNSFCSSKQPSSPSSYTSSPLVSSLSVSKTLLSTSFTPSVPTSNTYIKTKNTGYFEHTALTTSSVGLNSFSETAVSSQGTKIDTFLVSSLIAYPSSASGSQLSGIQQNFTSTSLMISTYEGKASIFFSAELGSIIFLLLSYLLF

## FITC-labeled anti-V5 (Abcam, V5-tag-antibody-FITC-ab1209)
  FITC signal against unlabeled cells (orders of magnitude): 2
